Test results: paper PMC12309602, “NMR-guided identification of CYP11A1–Adrenodoxin interactions that differentially govern cholesterol and vitamin D3 metabolism” (The Journal of Biological Chemistry, 2025)

Tests used:
[1] = target: T1, bovine CYP11A1, wild type, mature, residues 41-520 (bovine, UniProt P00189 41-520); experiment: cell-based or functional assay
T1 sequence (looked up): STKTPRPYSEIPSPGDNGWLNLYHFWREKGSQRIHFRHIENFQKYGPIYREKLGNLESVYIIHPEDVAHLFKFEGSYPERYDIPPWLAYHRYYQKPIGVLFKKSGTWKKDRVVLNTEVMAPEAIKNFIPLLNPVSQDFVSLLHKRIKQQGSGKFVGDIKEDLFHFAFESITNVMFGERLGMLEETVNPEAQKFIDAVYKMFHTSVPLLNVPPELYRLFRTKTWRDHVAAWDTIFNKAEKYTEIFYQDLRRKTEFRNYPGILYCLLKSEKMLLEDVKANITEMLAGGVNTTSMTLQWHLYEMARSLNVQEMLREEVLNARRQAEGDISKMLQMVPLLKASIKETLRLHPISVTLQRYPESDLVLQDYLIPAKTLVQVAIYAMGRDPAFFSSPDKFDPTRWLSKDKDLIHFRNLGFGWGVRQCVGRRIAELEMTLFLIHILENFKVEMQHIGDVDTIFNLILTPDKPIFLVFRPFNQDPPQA

[2] = target: T1, bovine CYP11A1, wild type, mature, …; experiment: NMR titration; 2D 1H,15N-HSQC of 50 uM 15N-Adx with 0.25 to 1.0 equivalents of CYP11A1; 50 mM potassium phosphate, 50 mM NaCl, pH 7.2; peak intensity ratios; some samples with cholesterol or vitamin D3 in 25% HPCD added to the pre-formed complex; settings: both partners purified

B1: bovine Adrenodoxin M77L (natural protein)
chain: SSSEDKITVHFINRDGETLTTKGKIGDSLLDVVVQNNLDIDGFGACEGTLACSTCHLIFEQHIFEKLEAITDEENDLLDLAYGLTDRSRLGCQICLTKAMDNMTVRVPDAVSDARESIDMGMNSSKIE
modifications: uniform 15N labelling in the NMR samples
- reconstituted CYP11A1 assay, side chain cleavage of cholesterol: pregnenolone produced with Adx M77L compared to WT Adx, at 45 min [1]: 0.6 fold (decrease relative to WT Adx)
- reconstituted CYP11A1 assay: vitamin D3 depletion with Adx M77L compared to WT Adx, at 45 min [1]: 0.7 fold (decrease relative to WT Adx)

B2: bovine Adrenodoxin, wild type (15N-labeled for NMR) (natural protein)
chain: SSSEDKITVHFINRDGETLTTKGKIGDSLLDVVVQNNLDIDGFGACEGTLACSTCHLIFEQHIFEKLEAITDEENDMLDLAYGLTDRSRLGCQICLTKAMDNMTVRVPDAVSDARESIDMGMNSSKIE
modifications: uniform 15N labelling in the NMR samples
notes: Adrenodoxin (Adx), bovine; Carries a 2Fe-2S cluster; also called Adx; WT Adx; source: Ni-NTA, then size exclusion chromatography (Superdex 75)
- binding result [2]: binds

B3: bovine Adrenodoxin M77S (natural protein)
chain: SSSEDKITVHFINRDGETLTTKGKIGDSLLDVVVQNNLDIDGFGACEGTLACSTCHLIFEQHIFEKLEAITDEENDSLDLAYGLTDRSRLGCQICLTKAMDNMTVRVPDAVSDARESIDMGMNSSKIE
modifications: uniform 15N labelling in the NMR samples
- reconstituted CYP11A1 assay: vitamin D3 metabolism with Adx M77S compared to WT Adx, at 45 min [1]: ~0.3 fold (increase relative to WT Adx)
